Experimental findings from patent US20250313641A1 are described below.

This assay addresses cynomolgus monkey IL-2 receptor (IL-2R) on cyno PBMC subsets (cynomolgus monkey) (UniProt Q38J85). In words: cell-based or functional assay.

cynomolgus monkey IL-2 receptor (IL-2R) on cyno PBMC subsets (cynomolgus monkey), sequence (Q38J85 27-551, chain 1 of 2): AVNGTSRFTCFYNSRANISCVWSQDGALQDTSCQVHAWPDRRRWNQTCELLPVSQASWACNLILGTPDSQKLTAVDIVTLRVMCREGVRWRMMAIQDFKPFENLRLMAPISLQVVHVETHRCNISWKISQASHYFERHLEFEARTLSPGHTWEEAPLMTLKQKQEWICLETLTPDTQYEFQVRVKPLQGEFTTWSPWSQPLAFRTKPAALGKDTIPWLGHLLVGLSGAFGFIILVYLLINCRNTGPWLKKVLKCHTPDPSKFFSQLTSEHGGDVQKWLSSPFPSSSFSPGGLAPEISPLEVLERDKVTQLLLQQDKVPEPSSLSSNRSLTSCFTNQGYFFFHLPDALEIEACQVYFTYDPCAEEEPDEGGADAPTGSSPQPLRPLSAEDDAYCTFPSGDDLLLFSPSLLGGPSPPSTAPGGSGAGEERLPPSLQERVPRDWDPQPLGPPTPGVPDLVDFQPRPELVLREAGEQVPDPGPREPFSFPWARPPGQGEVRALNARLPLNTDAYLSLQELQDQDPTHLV
cynomolgus monkey IL-2 receptor (IL-2R) on cyno PBMC subsets (cynomolgus monkey), sequence (chain, as listed by the source, chain 2 of 2): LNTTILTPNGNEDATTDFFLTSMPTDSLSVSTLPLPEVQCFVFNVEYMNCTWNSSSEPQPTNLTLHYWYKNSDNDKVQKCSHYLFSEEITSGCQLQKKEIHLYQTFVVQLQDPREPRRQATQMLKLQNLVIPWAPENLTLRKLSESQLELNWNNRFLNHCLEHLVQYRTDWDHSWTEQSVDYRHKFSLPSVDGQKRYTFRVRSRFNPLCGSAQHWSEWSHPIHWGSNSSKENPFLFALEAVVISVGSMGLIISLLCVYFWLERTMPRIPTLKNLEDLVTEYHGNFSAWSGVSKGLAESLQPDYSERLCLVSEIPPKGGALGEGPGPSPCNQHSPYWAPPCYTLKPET

As to “Recombinant human IL-2 (from UniProt P60568 21-153) (ligand)”, the Ki67 (Cyno) EC50 [nM], CD4^+ T cells is 0.01 nM; the Ki67 (Cyno) EC50 [nM], CD8^+ T cells amounted to 0.05 nM; the Ki67 (Cyno) EC50 [nM], T-regs was 0.009 nM; the Ki67 (Cyno) Emax (%), CD4^+ T cells worked out at 90%. The substance further gave a Ki67 (Cyno) Emax (%), CD8^+ T cells of 88%; a Ki67 (Cyno) Emax (%), NK cells of 92%; a Ki67 (Cyno) Emax (%), T-regs of 69%.
